Experimental findings from patent publication US20070129307A1, “Insulin epitopes for the treatment of type 1 diabetes” (The University of British Columbia, priority 2001, published 2007) are described below.

The target of experiment [1] is T1, murine MHC class I molecule, H-2Kd (mouse).
T1 chain 1: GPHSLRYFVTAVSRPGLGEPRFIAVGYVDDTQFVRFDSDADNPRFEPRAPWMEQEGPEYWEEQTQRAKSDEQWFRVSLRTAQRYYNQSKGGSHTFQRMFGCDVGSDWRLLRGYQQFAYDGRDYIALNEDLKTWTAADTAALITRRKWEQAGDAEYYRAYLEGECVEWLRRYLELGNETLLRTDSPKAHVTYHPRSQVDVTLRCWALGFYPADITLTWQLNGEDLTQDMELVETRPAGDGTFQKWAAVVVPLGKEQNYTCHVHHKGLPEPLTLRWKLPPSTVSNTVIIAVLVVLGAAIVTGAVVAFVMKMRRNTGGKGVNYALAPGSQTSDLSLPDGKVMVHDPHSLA
T1 chain 2: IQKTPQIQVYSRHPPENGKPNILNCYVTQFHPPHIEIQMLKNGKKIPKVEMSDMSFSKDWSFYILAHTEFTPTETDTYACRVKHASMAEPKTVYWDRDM
Kind of experiment: MHC class I stabilization assay on TAP-deficient RMAS-Kd cells, anti-H-2Kd-FITC, flow cytometry (background without peptide 6.07%). For orientation: Flow cytometry measures light scatter and fluorescence of single cells or particles in a stream.

Experiment [2] addresses human MHC class I molecule HLA-A*0201 (human). The experiment in a line: HLA-A2 stabilization on T2 cells loaded with 50 ug/ml peptide, anti-HLA-A2 (BB7.2) flow cytometry, MFI relative to CMV/A2.

For the molecule LYLVCGERG (modifications not checked) [INSL], the % of RMAS-Kd cells staining positive for surface H-2Kd in experiment [1] stood at 73.7%. With DLMGYIPLV (modifications not checked) [HCV peptide], the relative HLA-A2 surface expression (% of CMV/A2 peptide binding) in experiment [2] was greater than 80%.

In turn, KYNKANVFL (modifications not checked) [NRP-V7] gave a % of RMAS-Kd cells staining positive for surface H-2Kd in experiment [1] of 72.7%.
